In general, stoichiometry N refers to a count of units in the complex or per binding partner. The term Kd denotes the free concentration of one partner at which half of the binding sites on the other are occupied at equilibrium, for simple one-to-one binding. A high value points to weaker binding.

Experimental findings from PMC10643698 are described below.

Values joined by “and” are separate entries in the source; they are usually repeats but may differ in a detail not shown here. Identical values can stand only once. Like-named read-outs stand apart in the source and are kept apart here.

Experiment [1] deals with MtaLon-Y397A/S678A (Meiothermus taiwanensis). Put plainly: cryo-EM structure; MtaLon-Y397A/S678A 1 μM (as hexamer) with 10 μM casein and 5 mM ATPγS, 3 h.
Experiment [2] deals with MtaLon-M217A (Meiothermus taiwanensis). As to the kind of experiment: cryo-EM structure; MtaLon-M217A 1 μM (as hexamer) with 10 μM casein and 5 mM ADP, 3 h.
Experiment [3] deals with MtaLon-Y224S (Meiothermus taiwanensis). Put plainly: cryo-EM structure; 10 μM ΔN-E613K and 5 mM ADP incubated with 1 μM MtaLon-Y224S at 4 °C for 1 h, mixture purified on Superose 6 Increase; 5+1 heteromeric complex.
The target is the same in experiment [4]. Put plainly: cryo-EM structure; MtaLon-Y224S 1 μM (as hexamer) incubated with 5 mM ATPγS overnight.
In experiment [5] the target is Meiothermus taiwanensis LonA, wild type, full length (Meiothermus taiwanensis). Put plainly: cryo-EM structure; wild-type MtaLon 1 μM (as hexamer) incubated with 5 mM ADP overnight; single-particle reconstruction without symmetry.
Experiment [6] has the same target. Put plainly: cryo-EM structure; wild-type MtaLon 1 μM (as hexamer) without any nucleotide (MtaLon-Apo).
The target is the same in experiment [7]. The description is as above. The source holds these as a separate data set.
Experiment [8] has the same target. Put plainly: cryo-EM structure; wild-type MtaLon 1 μM (as hexamer) incubated with 5 mM ADP overnight; single-particle reconstruction without symmetry. The source holds these as a separate data set.
For experiment [9], the target named is MtaLon-S678A (Meiothermus taiwanensis). Put plainly: cryo-EM structure; MtaLon-S678A 1 μM (as hexamer) with 10 μM casein and 5 mM ADP, overnight.
The target is the same in experiment [10]. The experiment is described as above. The source holds these as a separate data set.
The target of experiment [11] is fluorescein isothiocyanate (FITC)-labeled casein (UniProt P02662). As to the kind of experiment: fluorescence polarisation; MtaLon samples serially diluted (5 µM to 0.01 µM) mixed with 1.25 µM FITC-casein, 1 mM ADP, 4 °C, 3 h; triplicates. For orientation: Fluorescence polarisation rises when a labelled molecule tumbles more slowly, as on binding a larger partner.
Chain of UniProt P02662 (P02662 16-214): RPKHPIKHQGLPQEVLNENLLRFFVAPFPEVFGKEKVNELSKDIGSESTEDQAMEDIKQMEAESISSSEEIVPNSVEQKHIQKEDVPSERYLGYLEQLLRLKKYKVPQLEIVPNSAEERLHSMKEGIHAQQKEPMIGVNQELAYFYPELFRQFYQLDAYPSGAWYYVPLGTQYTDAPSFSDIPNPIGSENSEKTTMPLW

In the case of MtaLon-Y397A/S678A (enzyme), the stoichiometry N in [1] is 5 and 6.
As to MtaLon-M217A (enzyme), the stoichiometry N in experiment [2] is 5 and 6.
For the substance MtaLon-Y224S (enzyme), the stoichiometry N in experiment [3] was 5 and 6; in experiment [4], 5 and 6.
As for “Meiothermus taiwanensis LonA, wild type, full length (enzyme)”, the stoichiometry N in experiment [5] is 5 and 6; in [6] it was 5 and 6; in experiment [7] it was 3 and 4; in experiment [8], 3 and 4.
Regarding MtaLon-S678A (enzyme), the stoichiometry N in experiment [9] amounted to 6; in [10], 5. The same substance returned a Kd in experiment [11] of 1380 nM.
